Measured values taken from the NTF2 design screens of Basanta et al. (2020).

Experiment: protease stability score; higher = more stable; yeast display proteolysis, trypsin and chymotrypsin;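 also: relative to predicted unfolded state with 0 unfolded-like and 1 meaning tenfold more protease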

Sequence	protease stability score
SEEEHHDRMVSHLWIKLWSTGDEDRIRELLDPNAKFELEQGDKEVHDHGRESIAKWLEIMFRHLGVKHFRLEHVHVFNGRIEVIMRLDVGDKHITIILRTQVIDGRIKSFVIETRHK	1.17
NEDERETELFLRLFRRALLTGDWRAIEDLMDPNVMIHVNGREFHGREQYYKIVMNELTHWRLHHTKIDDIRLYDGVLRVQLRLQGEINGREDFLHLHVIIEKIDGKWIFRSVEIR	1.91
DDEDRKKADEMLKALKHGDPDRVRELMDPNAKAVYGDKRIRGRDDFVEDMFRKQREIKIDMKIEEFRVNGNHAVFTVDVIEDKDGRPKRFKARVVITLHNGKIIDIKVEEEH	1.49
DETEEVMERVIQMLAHATHTGDWKDIRRLMDPNVKININGREIIGREELIRYLRELRETYHHFELKHVEVQGDKIIVHGRTLIRIEIGDKEIHLDSDVRYILWKVDGRWIMESIHIV	2.18
SEIETILEKVLRELEHRKETGDEESFERYADPNVRMSVDGKDIHGREEVLRSWLETWKLMGVDHSHLHVTDLRIIGNKLEIDGIVRFNVGDKIVHRHSRLIMLKINGRWMIKQVEIH	1.22
SEEEEIVKRFIELLDHVMKTGDEKFYEHMADPNTRVKQGEFEDHGREAFRWFLKEIRSKDVKTEHVELFDGRLRVEGRLLGVFNGQHVELHMILISVKVDGRWRVKMVIIH	1.52
DEREEWVERIERRLKEAIRTGDEHTLSKNMDPDAKLDINGVDLIGWERVIDFLRELRKELGVDKIHFRVESRRIIGDKAELDTRLHVNGKHHDTHVIIEKFNGVWSIHSLHVR	1.15
HEHEELIRWAVELLEHNTRTGDEETLIRLADPNVRMIFDGRDLVGRDWLLEFEERLGADHVELEFRHVRIIDGRVHVNGIMRHEFDGVRVERRTTIIVKKINGRWNNRTVEFR	0.529
DEEEEIIKEQLRILKKNLETGDWKAVLKMFDPNVREDVNGQTLIGRELWAQIFVEMGVDHIIERRVDIQGDKIRLYGQLDQGDKKHTTHIHARKVDGRWTFESVHVR	1.08
DEDDEAVKRFIDEFVHSMRTGDEEKLYRLADPHVRSVIDGVEFVGMHWLTTELHHLRVQRLEFEFKDIHFQGDKAHVRGHLILTLHFNGREYVVRREVELIILKINGRWHLHEFIWR	1.68
DDREEELQHLMELILFLLVTGNEEIWMRMADPDVKSRISIGDKQETYHGRETVARYMIHERHFYKNIQVKFDDVQVQGDKVIVILTFHWNGREIEVIHTFIVINGKLTSWEVRFIHR	1.42
DEDEEKAKEAWEDIVRDIETGNEESMEKMLDPNTRLVVGEKERHGWESASKFVRELRHRVDHVELRLKDSKLYNGRVELDGLLIENFNGVEVRHKMIVFILKINGRWHIESVIIH	1.44
DDWEEILREMIERWLKIFLTGDEEQLQRLADPDTRLNFNGREHHGMETLRRWRHRYEEEMRVRRINVKHEEFQGEKIRMDTELHTEVNGVKIITRTELIFIIINGRIKEVEIRVK	0.853
SEHDELLNRLSELLTHLILTGDWKTFSELADPNVLAITDINGRTRHHHGREHFLNLLEELLREFGIDHLWITHIDAFNGVSHTHVNIEVNGRTHELRLHIVIIDGKVHEVHFSFK	0.34
THLHDQVHKAVEDVERDLMTGNEERLYKLLDPNVRIEYNGQDLHGREIAIHFLIRISNHWRFEDLHIESMNVQGNKATIHSRYVRHIGDKREETHVHLYMVKINGQWFIHSMSFS	2.25
SHEDRWIEHMVDLLEELFHTGDWEHLRHLFDPNTRSNINGKEFHGRDLAIKLVVEKMEFFKGARTDVEHRHVQGEKVELIFRLEYNGRRFHLSIRLQVVNGRVKEVNVKIDTE	1.67
LEEKDEVHHIVDRLFKVLMTGDFEILRHLLDPDDRLKIDINGRQIDLHGREEVVHWVIHELRELRIELRVKRVHHTENHYVADTRLHIRQGDKEFVHETEWRILIIDGKNKEWRIIVH	1.38
SEEDEEAERWVRMLEHLIRTGDEEILNSFADPNVRYIQGDKHLHGRETVYEYLEELWRKLGVDHMNIKDRHLRVFNGRVHLQLFVHFTVNGRSFDSILRFDTIKIDGQWHMHRIVVEII	1.31
DEDEEREKVYHELHLHNLLTGNEEILANLVDPHVLSIVNGKELHGMDEVRKLWQELGWTWHDIHIHDEKRIGNKVHIDVRLNGNINGRTMIVRAKITITKINGRWYVSHIEII	0.718
SEEEKHAHEMVRIFLHILKTGDWRTLEKLLDPDVRMSLDINGREHHQVGREEVLKAFIRFLDEWRMDDLHLHDVTIQGDKAYLETEVHITFNGQRHHTHLEIEIYVINGKIKSIRLTIR	2.36
SEDDSDLEEYLRLWVKAWMTGDEDLLRTLLDPHTRFQSHVNGKEVERHGMEVVSHWLRKFKNIRFEVHHVHVVNGVLYHETRVKFDGVRIETELNAIVVDGKNKFLNIHIK	0.299
SEDEETIKRMVERWEKEFRTGDEKSYIENADPNYRLEVGDKTSIGRESVAKALDDLLRKRGVEIRDIKVHDVKIVGDFIHMDITFRGTQGDKEFDLKVILISKKVNGRWVPEHVHVH	0.789
SEDEEMTRKYFERYIRWLVTGDPKLLSELVDPNVKLIYNGRHLHGREFLVEWEMEILREARLHSVHVRDVKLFNGRLRMDVEINIEIGDKKSVVESNIVALKVNGRWVLESYEVD	1.42
TEDEDRLTEMIEELLHALLTGDEKRKDELIDPHTKLDVNGRERHGMEEIKKNWRKLGVERIDLRVRERRIVNGVAHIRGDLHVGDKSMEVHIVFVKVDGRWIVHSFFIH	1.31
SEEHKLLRETLEILWDTIETGDEHKLSNLLDPRARLRVGDKEYHGREEVMRIMTEIRVDRFRLHSITLVDGRAIIHTEIDVRVNGQRFRTSVTIFLIKVDGRWFVESLQID	2.4

Sequence	protease stability score
DDEEEESEHAVKFWKHAQETGDFDEMRRLADPNVKVEIGDKELHGRKDFTRLLREHKEKLGVERIEVFIHDMHPINGRVTVHVIIEYNGQRQWFHVIFLKINGRWFIESMHIT	0.378
DDFDRNIEKLMKDLLHNWRTGNEDEFLRLIDPNARLTVGDYESHGREEYARVLRELLEEMRLHQVHIRHVEYFDGQADIDIREDGFINGQRIILTTRIIVVKVNGRWVVKSHVIN	0.967
DESMTEAKQILETLNKSLNTGDERLDKELFDPRAKLEFDGREIHGRELILTWLSEWRIEIKDFRIEDIEFQGNKVKMHTRIDMTVDFNGRRIKIDTTMHHDVIKVNGRWLIQRQIIP	1.12
DEREEEAERIMRLFQEFERTGDEDMLRHLVDPDARWVVGDKFQHGWHHFHRLLHHLRVRDLKPKSLHIDVQGDKVEVILHQEMDGEINGKRVIYHVVVIIIVNKFNGRWRNETVEVRFH	0.843
HETEKLTKEYIREELEVLKTGDEKETRELLDPDVRIEQGEFSTHGWDYATHWLRTFTERVKGAQFEKKTIRVINGRVNIHMLMHFNGREERIDLISVKIDGRWLIKSVHIHIE	0.208
SEEEQKLRNMAKLTFKDLITGDEEHFEKLADPHTRFNVGNYERHGMRLHLEWYLEWLTRIKGLKLRLELHDVRVVDGRAISDTTLDVHIGDKHIHQDIKLLLVIVDGRIKELEIRFV	1.22
REEEEVVREIARRVIKSWITGNEHDMQEFADPHVRIFIGDKEIIGMEILNEILHRIKNITIRINMRHVDVQGDKVDLEGELEIRVNGQTERHDSRHHFDVVNGRIKIIEIQWD	0.918
HEEETHWRSLTHLFAEWIITGNEDLYMELADPHYLIEIDGKTQHGRENANEVHETFWKDYGFKHRHVRSVRQVGDFVEIEVNLLFNGQRYDMHIHVFVIDGKLKEIHVSLK	1.33
SELEELWKRLLEEFVRLLHTGNEERILDLMDPHARVHTTFENHEFHDHGREAFHIMWEEFGINHLEFHRVRLFNGQVDITGSVNVNGREMETRIHLYIINGRVHQTIFRFR	0.996
SEEEEIAERFKKLMFEATHTGDWHTFMRLADPHVRVDINGKERHGREHWVEHERRLGIDHTDIRIRREREINGVMHIDSQLILHFNGVTLTLDHKLILKKVDGKWILHELKVD	-0.054
SEHEEMEQDAREIMERVFHTGDETTMRKLADPHVKFHIGDKLHVGRELFDNFVRYVLEKFKNIRVETEEVRDVNGVVIQDLDENYNGQRYKVRWVMVKINGKWTIERVEIR	0.599
DEEKELADYISHLLVENLKTGDWHSLRRLIDPNARLEYGDKEHHGWKEIYESKRHLDEELGVKHVNINIHRINYQGEKVEIDGEVRIHFNGRTENRKVNIELRIFNGRIKEVIVDIR	1.17
DEDHEDSKHALEYMLDSVRTGDEHRMKRLVDPNMKVHWDGVDVVGRELAAKFLSQLRVHSVHLKDHKVFDGQLDLHVHIRQEWDGRHRETRTTFFILKINGRWLVTEVRVD	0.249
DEEDEELRRLLELLLRLYMTGDEHTLQTLADPHMKVRFHWDGREIRDHGRDALERHLKEWRVNDMDVNHFEAFNGRNMIDGILDGIINGVERRHKLELHFDLVNGRVKSVEIVLR	1.08
DDEDKRLETRARLWFEHFFTGDFEAMLWYLDPDTRLHINGREFHGMEHIVHHLEREILHLRVRIHLRRIKIFDGRLIIDIELEVHYGDKTHRTRAEIILIVVNGRIREIEVRES	1.5
DDVEKLTREWFEKYLHTIQTGDEHSFERLADPNVRLHAENREYHGMEVISERLREEQDKFKGLRITHFHITHIINNEDEMYVDGRIVVEWNGQKEILTVHLIAFKVNGKWILKRYVKK	1.78
SERHEKTKKVLDDFLEIRETGDEHTFNRLADPHTRVHIGDKYVHGMEDANKMLKQWEQEMGIDHIIIRHVEIRLFNGKVNHHLDEELIVNGQSLRVEVVLFIFKFDGRWVLEKLHINVH	1.21
DEEKKNIERLTEILAHVIRTGDEESWERMMDPNARATQGDKVMVGRDLLEHLWRRIDVIDHVRLEPKHVHRQGDKIHIDVENEVHGTVNGVKISEKHKEILVIYKFDGRWHFHSIEIT	0.064
DEKSDIYHQALRLWIDTMVTGDENLYERLLDPHVRVEIGDKEIHGRERVSEFFKRFAEHLGVDHVELHDFRYQGDYVRLRISIEYNGQHLDTDLIITKINGRWYIHSEKYK	1.26
DEEDHILLEIMRRVFESIMTGDEDLFRELADPNVRIRIGNKEMVGWEHIVKTLRKEDEDLGAKHKSFTLDDEDLIGNYAHVEGTLHIEFNGKDIHRHIRINVEVIDGRVKSIRMEDK	0.936
DEEVAKKMMEAWMKALQNGNDEQMKKLYDPTVRWEDGNTEKQGLEVVVKLVQTVKKKGIEFQVRKAKVKGNQVEVHYDMKVGDDTVTFTVQFRAQGGRIQEVRVEISEEARKAVKKG	1.32
SEEEKAFKESYDVWIEALKTGNEEESREMFDPTPLQVVNGQELHGRDHIEQEVSEWRIDHVDIDELRLQGDKAILHGRVSGHINGKRVKFEEKLVMHKIDGRWFIRSVIVR	0.333
DEEEHRIIRFIKKVLDDIVTGDWDSFRRNLDPNAKLSAEFEGRREEHVGRDIATRWMREIRIHDMEIKDMRLIDGVNIVKGHFDGRINGQRIRTDTEIWLYVVDGRITSVTIHII	0.776
DEDERQLEESLKHWIKALETGNEEEVMRLLDPNVKIEIGDKDLHGMEAEEERLRKVKGMRIEFRLRDMKHIGDKIDIDGELRLNFNGVDIKSKIIIFAHKFNGRWINRRIIVL	1.83
HEDEKIARELTELLLHHFHTGNEESLSKLMDPNVRVIAENHELHGMEKKIEKNRKYLKDLGVDHFSFELRHLDLQGDKARVEGIEHWTINGQHHERHMVLHIVVVNGRLQESSIEIR	0.929
